Laboratory results published in patent US20260242735A1 (UNIVERSIT T BASEL, published 2026).

B1: Refmab #6 (antibody, V domains shown)
VH: QVQLQQPGAEVVKPGASVKMSCKASGYTFTSYYIHWIKQTPGQGLEWVGVIYPGNDDISYNQKFQGKATLTADKSSTTAYMQLSSLTSEDSAVYYCAREVRLRYFDVWGQGTTVTVSS
VL: EIVLTQSPGSLAVSPGERVTMSCKSSQSVFFSSSQKNYLAWYQQIPGQSPRLLIYWASTRESGVPDRFTGSGSGTDFTLTISSVQPEDLAIYYCHQYLSSRTFGQGTKLEIK
notes: Full-length format is human IgG1 Fc silent (PG-LALA); also made as Fab; The alanine scan used IgG or Fab
B2: Refmab #6 (antibody, V domains shown)
VH: B1 VH
VL: B1 VL
notes: The alanine scan used IgG or Fab
B3: Refmab #5 (antibody, V domains shown)
VH: QVQLVQSGAEVKKPGASVKVSCKASGYTFTNYDINWVRQAPGQGLEWIGWIYPGDGSTKYNEKFKAKATLTADTSTSTAYMELRSLRSDDTAVYYCASGYEDAMDYWGQGTTVTVSS
VL: DIQMTQSPSSLSASVGDRVTINCKASQDINSYLSWFQQKPGKAPKTLIYRANRLVDGVPSRFSGSGSGQDYTLTISSLQPEDFATYYCLQYDEFPLTFGGGTKVEIK
notes: as for B1
B4: Refmab #5 (antibody, V domains shown)
VH: B3 VH
VL: B3 VL
notes: as for B2

Tests used:
Test in all cases: alanine scan, flow cytometry, HEK293-T;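 also: antibody binding to each alanine-substituted CD33 mutant expressed transiently in HEK293-T, read as fluorescence minus background, mean of duplicates, relative to wild-type CD33 set as 100%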
human CD33 H57A = human CD33 H57A (human, UniProt P20138 18-364)
human CD33 Q80A = human CD33 Q80A (human, UniProt P20138 18-364)
human CD33 G88A = human CD33 G88A (human, UniProt P20138 18-364)
human CD33 L92A = human CD33 L92A (human, UniProt P20138 18-364)
human CD33 P46A = human CD33 P46A (human, UniProt P20138 18-364)
human CD33 I105A = human CD33 I105A (human, UniProt P20138 18-364)
human CD33 I47A = human CD33 I47A (human, UniProt P20138 18-364)
human CD33 N113A = human CD33 N113A (human, UniProt P20138 18-364)
human CD33 F117A = human CD33 F117A (human, UniProt P20138 18-364)
human CD33 S128A = biological target: T1, human CD33 S128A (human, UniProt P20138 18-364)
T1 construct: alanine scan clone, transfected HEK293-T

human CD33 T139A = biological target: T2, human CD33 T139A (human, UniProt P20138 18-364)
T2 construct: alanine scan clone, transfected HEK293-T

human CD33 P145A = biological target: T3, human CD33 P145A (human, UniProt P20138 18-364)
T3 construct: alanine scan clone, transfected HEK293-T

human CD33 I147A = biological target: T4, human CD33 I147A (human, UniProt P20138 18-364)
T4 construct: alanine scan clone, transfected HEK293-T

human CD33 I149A = biological target: T5, human CD33 I149A (human, UniProt P20138 18-364)
T5 construct: alanine scan clone, transfected HEK293-T

human CD33 P150A = biological target: T6, human CD33 P150A (human, UniProt P20138 18-364)
T6 construct: alanine scan clone, transfected HEK293-T

human CD33 T152A = biological target: T7, human CD33 T152A (human, UniProt P20138 18-364)
T7 construct: alanine scan clone, transfected HEK293-T

human CD33 G156A = biological target: T8, human CD33 G156A (human, UniProt P20138 18-364)
T8 construct: alanine scan clone, transfected HEK293-T

human CD33 H157A = biological target: T9, human CD33 H157A (human, UniProt P20138 18-364)
T9 construct: alanine scan clone, transfected HEK293-T

human CD33 L161A = biological target: T10, human CD33 L161A (human, UniProt P20138 18-364)
T10 construct: alanine scan clone, transfected HEK293-T

human CD33 C163A = biological target: T11, human CD33 C163A (human, UniProt P20138 18-364)
T11 construct: alanine scan clone, transfected HEK293-T

human CD33 S164A = biological target: T12, human CD33 S164A (human, UniProt P20138 18-364)
T12 construct: alanine scan clone, transfected HEK293-T

human CD33 S166A = biological target: T13, human CD33 S166A (human, UniProt P20138 18-364)
T13 construct: alanine scan clone, transfected HEK293-T

human CD33 A168S = biological target: T14, human CD33 A168S (human, UniProt P20138 18-364)
T14 construct: alanine scan clone, transfected HEK293-T

human CD33 C169A = biological target: T15, human CD33 C169A (human, UniProt P20138 18-364)
T15 construct: alanine scan clone, transfected HEK293-T

human CD33 T173A = biological target: T16, human CD33 T173A (human, UniProt P20138 18-364)
T16 construct: alanine scan clone, transfected HEK293-T

human CD33 P174A = biological target: T17, human CD33 P174A (human, UniProt P20138 18-364)
T17 construct: alanine scan clone, transfected HEK293-T

human CD33 R122A = biological target: T18, human CD33 R122A (human, UniProt P20138 18-364)
T18 construct: alanine scan clone, transfected HEK293-T

human CD33 I176A = biological target: T19, human CD33 I176A (human, UniProt P20138 18-364)
T19 construct: alanine scan clone, transfected HEK293-T

human CD33 S178A = biological target: T20, human CD33 S178A (human, UniProt P20138 18-364)
T20 construct: alanine scan clone, transfected HEK293-T

human CD33 S181A = biological target: T21, human CD33 S181A (human, UniProt P20138 18-364)
T21 construct: alanine scan clone, transfected HEK293-T

human CD33 A182S = biological target: T22, human CD33 A182S (human, UniProt P20138 18-364)
T22 construct: alanine scan clone, transfected HEK293-T

human CD33 A183S = biological target: T23, human CD33 A183S (human, UniProt P20138 18-364)
T23 construct: alanine scan clone, transfected HEK293-T

human CD33 G123A = biological target: T24, human CD33 G123A (human, UniProt P20138 18-364)
T24 construct: alanine scan clone, transfected HEK293-T

human CD33 L187A = biological target: T25, human CD33 L187A (human, UniProt P20138 18-364)
T25 construct: alanine scan clone, transfected HEK293-T

human CD33 S194A = biological target: T26, human CD33 S194A (human, UniProt P20138 18-364)
T26 construct: alanine scan clone, transfected HEK293-T

human CD33 S195A = biological target: T27, human CD33 S195A (human, UniProt P20138 18-364)
T27 construct: alanine scan clone, transfected HEK293-T
T27 sequence (P20138 18-364 S195A limits assumed): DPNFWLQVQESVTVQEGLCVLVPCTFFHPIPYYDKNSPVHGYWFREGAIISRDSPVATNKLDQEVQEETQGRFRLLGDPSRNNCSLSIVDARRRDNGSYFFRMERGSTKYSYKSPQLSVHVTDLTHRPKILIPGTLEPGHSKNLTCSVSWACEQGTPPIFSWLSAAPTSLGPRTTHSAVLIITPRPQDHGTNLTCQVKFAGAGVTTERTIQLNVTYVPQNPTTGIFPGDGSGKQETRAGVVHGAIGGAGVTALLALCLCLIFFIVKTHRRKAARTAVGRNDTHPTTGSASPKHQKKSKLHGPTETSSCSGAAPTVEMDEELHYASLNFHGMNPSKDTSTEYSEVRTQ

T1 sequence (P20138 18-364 S128A limits assumed): as the sequence (P20138 18-364 S195A limits assumed) above, with S111A, A178S counted along it
T14 sequence (P20138 18-364 A168S limits assumed): as the sequence (P20138 18-364 S195A limits assumed) above, with A151S, A178S counted along it
T21 sequence (P20138 18-364 S181A limits assumed): as the sequence (P20138 18-364 S195A limits assumed) above, with S164A, A178S counted along it
Chain of human CD33 Q80A (P20138 18-364 Q80A limits assumed): as the sequence (P20138 18-364 S195A limits assumed) above, with Q63A, A178S counted along it
T23 sequence (P20138 18-364 A183S limits assumed): as the sequence (P20138 18-364 S195A limits assumed) above, with A166S, A178S counted along it
T19 sequence (P20138 18-364 I176A limits assumed): as the sequence (P20138 18-364 S195A limits assumed) above, with I159A, A178S counted along it
Chain of human CD33 N113A (P20138 18-364 N113A limits assumed): as the sequence (P20138 18-364 S195A limits assumed) above, with N96A, A178S counted along it
T24 sequence (P20138 18-364 G123A limits assumed): as the sequence (P20138 18-364 S195A limits assumed) above, with G106A, A178S counted along it
T9 sequence (P20138 18-364 H157A limits assumed): as the sequence (P20138 18-364 S195A limits assumed) above, with H140A, A178S counted along it
T18 sequence (P20138 18-364 R122A limits assumed): as the sequence (P20138 18-364 S195A limits assumed) above, with R105A, A178S counted along it
T8 sequence (P20138 18-364 G156A limits assumed): as the sequence (P20138 18-364 S195A limits assumed) above, with G139A, A178S counted along it
T15 sequence (P20138 18-364 C169A limits assumed): as the sequence (P20138 18-364 S195A limits assumed) above, with C152A, A178S counted along it
Chain of human CD33 H57A (P20138 18-364 H57A limits assumed): as the sequence (P20138 18-364 S195A limits assumed) above, with H40A, A178S counted along it
Chain of human CD33 I105A (P20138 18-364 I105A limits assumed): as the sequence (P20138 18-364 S195A limits assumed) above, with I88A, A178S counted along it
T17 sequence (P20138 18-364 P174A limits assumed): as the sequence (P20138 18-364 S195A limits assumed) above, with P157A, A178S counted along it
T16 sequence (P20138 18-364 T173A limits assumed): as the sequence (P20138 18-364 S195A limits assumed) above, with T156A, A178S counted along it
T6 sequence (P20138 18-364 P150A limits assumed): as the sequence (P20138 18-364 S195A limits assumed) above, with P133A, A178S counted along it
T4 sequence (P20138 18-364 I147A limits assumed): as the sequence (P20138 18-364 S195A limits assumed) above, with I130A, A178S counted along it
T5 sequence (P20138 18-364 I149A limits assumed): as the sequence (P20138 18-364 S195A limits assumed) above, with I132A, A178S counted along it
T20 sequence (P20138 18-364 S178A limits assumed): as the sequence (P20138 18-364 S195A limits assumed) above, with S161A, A178S counted along it
Chain of human CD33 P46A (P20138 18-364 P46A limits assumed): as the sequence (P20138 18-364 S195A limits assumed) above, with P29A, A178S counted along it
T22 sequence (P20138 18-364 A182S limits assumed): as the sequence (P20138 18-364 S195A limits assumed) above, with A165S, A178S counted along it
Chain of human CD33 F117A (P20138 18-364 F117A limits assumed): as the sequence (P20138 18-364 S195A limits assumed) above, with F100A, A178S counted along it
T26 sequence (P20138 18-364 S194A limits assumed): as the sequence (P20138 18-364 S195A limits assumed) above, with S177A, A178S counted along it
T7 sequence (P20138 18-364 T152A limits assumed): as the sequence (P20138 18-364 S195A limits assumed) above, with T135A, A178S counted along it
T3 sequence (P20138 18-364 P145A limits assumed): as the sequence (P20138 18-364 S195A limits assumed) above, with P128A, A178S counted along it
T12 sequence (P20138 18-364 S164A limits assumed): as the sequence (P20138 18-364 S195A limits assumed) above, with S147A, A178S counted along it
T2 sequence (P20138 18-364 T139A limits assumed): as the sequence (P20138 18-364 S195A limits assumed) above, with T122A, A178S counted along it
Chain of human CD33 G88A (P20138 18-364 G88A limits assumed): as the sequence (P20138 18-364 S195A limits assumed) above, with G71A, A178S counted along it
Chain of human CD33 I47A (P20138 18-364 I47A limits assumed): as the sequence (P20138 18-364 S195A limits assumed) above, with I30A, A178S counted along it
Chain of human CD33 L92A (P20138 18-364 L92A limits assumed): as the sequence (P20138 18-364 S195A limits assumed) above, with L75A, A178S counted along it
T10 sequence (P20138 18-364 L161A limits assumed): as the sequence (P20138 18-364 S195A limits assumed) above, with L144A, A178S counted along it
T25 sequence (P20138 18-364 L187A limits assumed): as the sequence (P20138 18-364 S195A limits assumed) above, with L170A, A178S counted along it
T11 sequence (P20138 18-364 C163A limits assumed): as the sequence (P20138 18-364 S195A limits assumed) above, with C146A, A178S counted along it
T13 sequence (P20138 18-364 S166A limits assumed): as the sequence (P20138 18-364 S195A limits assumed) above, with S149A, A178S counted along it

Binder	Mean % WT Binding (human CD33 H57A)	Mean % WT Binding (human CD33 Q80A)	Mean % WT Binding (human CD33 G88A)	Mean % WT Binding (human CD33 L92A)	Mean % WT Binding (human CD33 P46A)	Mean % WT Binding (human CD33 I105A)	Mean % WT Binding (human CD33 I47A)	Mean % WT Binding (human CD33 N113A)	Mean % WT Binding (human CD33 F117A)	Mean % WT Binding (human CD33 S128A)	Mean % WT Binding (human CD33 T139A)	Mean % WT Binding (human CD33 P145A)	Mean % WT Binding (human CD33 I147A)	Mean % WT Binding (human CD33 I149A)	Mean % WT Binding (human CD33 P150A)	Mean % WT Binding (human CD33 T152A)	Mean % WT Binding (human CD33 G156A)	Mean % WT Binding (human CD33 H157A)	Mean % WT Binding (human CD33 L161A)	Mean % WT Binding (human CD33 C163A)	other results
B1	63 % WT binding	102 % WT binding	105 % WT binding	85.3 % WT binding	49.3 % WT binding	25.5 % WT binding	117 % WT binding	89.7 % WT binding	90.3 % WT binding	–	–	–	–	–	–	–	–	–	–	–	–
B2	–	–	–	–	–	–	–	–	–	127 % WT binding	97.7 % WT binding	89.7 % WT binding	65.4 % WT binding	100 % WT binding	106 % WT binding	92.7 % WT binding	88.1 % WT binding	96.3 % WT binding	100 % WT binding	73.9 % WT binding	Mean % WT Binding (human CD33 S164A): 100 % WT binding; Mean % WT Binding (human CD33 S166A): 108 % WT binding; Mean % WT Binding (human CD33 A168S): 100 % WT binding; Mean % WT Binding (human CD33 C169A): 76.2 % WT binding; Mean % WT Binding (human CD33 T173A): 98.9 % WT binding; Mean % WT Binding (human CD33 P174A): 103 % WT binding; Mean % WT Binding (human CD33 R122A): 106 % WT binding; Mean % WT Binding (human CD33 I176A): 102 % WT binding; Mean % WT Binding (human CD33 S178A): 102 % WT binding; Mean % WT Binding (human CD33 S181A): 102 % WT binding; Mean % WT Binding (human CD33 A182S): 93.9 % WT binding; Mean % WT Binding (human CD33 A183S): 92.3 % WT binding; Mean % WT Binding (human CD33 G123A): 94.1 % WT binding; Mean % WT Binding (human CD33 L187A): 119 % WT binding; Mean % WT Binding (human CD33 S194A): 92.4 % WT binding; Mean % WT Binding (human CD33 S195A): 113 % WT binding
B3	121 % WT binding	151 % WT binding	118 % WT binding	127 % WT binding	79.1 % WT binding	41.7 % WT binding	117 % WT binding	64 % WT binding	113 % WT binding	–	–	–	–	–	–	–	–	–	–	–	–
B4	–	–	–	–	–	–	–	–	–	283 % WT binding	104 % WT binding	82.9 % WT binding	77.2 % WT binding	112 % WT binding	132 % WT binding	137 % WT binding	92.3 % WT binding	102 % WT binding	130 % WT binding	62 % WT binding	Mean % WT Binding (human CD33 S164A): 110 % WT binding; Mean % WT Binding (human CD33 S166A): 114 % WT binding; Mean % WT Binding (human CD33 A168S): 103 % WT binding; Mean % WT Binding (human CD33 C169A): 101 % WT binding; Mean % WT Binding (human CD33 T173A): 101 % WT binding; Mean % WT Binding (human CD33 P174A): 118 % WT binding; Mean % WT Binding (human CD33 R122A): 85.7 % WT binding; Mean % WT Binding (human CD33 I176A): 97 % WT binding; Mean % WT Binding (human CD33 S178A): 117 % WT binding; Mean % WT Binding (human CD33 S181A): 128 % WT binding; Mean % WT Binding (human CD33 A182S): 103 % WT binding; Mean % WT Binding (human CD33 A183S): 101 % WT binding; Mean % WT Binding (human CD33 G123A): 67.5 % WT binding; Mean % WT Binding (human CD33 L187A): 144 % WT binding; Mean % WT Binding (human CD33 S194A): 90.4 % WT binding; Mean % WT Binding (human CD33 S195A): 117 % WT binding
